Results: paper PMC12285911 (Nature Structural & Molecular Biology, 2025)

T1: ^FAMFAT10 (GG–FAT10 N-terminally labeled with fluorescein amidite by sortase) (human, 5-FAM on the N terminus (5-FAM conjugated to the N terminus of the peptide …, attached by sortase))
T1 construct: GG added to the N terminus of FAT10 for sortase labeling (scar left after Smt3 cleavage); also called GG–FAT10 (labeled); source: E. coli BL21*, purified; sortase-labeled, enriched on Ni-NTA, gel filtration; not shown: His, N-terminal, cleaved; Smt3, N-terminal, cleaved
T1 chain: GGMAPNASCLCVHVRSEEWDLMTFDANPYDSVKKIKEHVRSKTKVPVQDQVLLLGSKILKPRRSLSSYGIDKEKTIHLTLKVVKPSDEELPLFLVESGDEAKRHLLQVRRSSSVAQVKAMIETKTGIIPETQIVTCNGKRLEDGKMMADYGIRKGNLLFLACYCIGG

T2: FAT10 (human leukocyte antigen-F-adjacent transcript 10), wild type, full length, unlabeled (human)
T2 construct: also called wild-type FAT10; source: E. coli BL21*, purified (Ni-NTA, His–ULP1 cleavage, HiTrap SP, gel filtration); not shown: His, N-terminal, cleaved; Smt3, N-terminal, cleaved
T2 chain: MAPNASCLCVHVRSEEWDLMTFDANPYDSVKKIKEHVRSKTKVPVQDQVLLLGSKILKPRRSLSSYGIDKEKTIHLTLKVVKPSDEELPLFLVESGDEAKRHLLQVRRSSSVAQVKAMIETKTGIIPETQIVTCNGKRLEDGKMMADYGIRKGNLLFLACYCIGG

B1: NUB1 (NEDD8 ultimate buster 1), wild type, full length (natural protein)
chain: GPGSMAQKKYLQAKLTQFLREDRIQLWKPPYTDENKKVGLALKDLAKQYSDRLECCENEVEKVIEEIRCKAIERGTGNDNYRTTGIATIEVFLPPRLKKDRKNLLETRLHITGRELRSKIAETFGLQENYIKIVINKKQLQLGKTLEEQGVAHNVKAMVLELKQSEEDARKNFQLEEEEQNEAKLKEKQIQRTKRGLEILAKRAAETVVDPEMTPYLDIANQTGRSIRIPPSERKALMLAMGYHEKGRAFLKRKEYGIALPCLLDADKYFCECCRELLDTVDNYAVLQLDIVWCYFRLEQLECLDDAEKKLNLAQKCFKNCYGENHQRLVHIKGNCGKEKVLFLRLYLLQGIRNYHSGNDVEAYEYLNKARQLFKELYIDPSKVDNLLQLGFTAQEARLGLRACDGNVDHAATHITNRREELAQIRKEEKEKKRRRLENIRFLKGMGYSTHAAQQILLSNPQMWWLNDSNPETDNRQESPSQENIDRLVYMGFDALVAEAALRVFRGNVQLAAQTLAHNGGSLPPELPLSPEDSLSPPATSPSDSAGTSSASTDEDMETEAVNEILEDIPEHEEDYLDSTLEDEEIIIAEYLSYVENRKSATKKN
notes: overhang left at the N terminus after removal of GST by precision (3C) protease; the shorter isoform, not NUB1L; codon-optimised synthetic gene in pGEX-6P-1; also called wild-type NUB1; source: E. coli BL21*, purified (GSH resin, GST–3C protease cleavage, gel filtration); not shown: GST, N-terminal, cleaved
B2: NUB1^Δ1–175 (domain or fragment)
chain: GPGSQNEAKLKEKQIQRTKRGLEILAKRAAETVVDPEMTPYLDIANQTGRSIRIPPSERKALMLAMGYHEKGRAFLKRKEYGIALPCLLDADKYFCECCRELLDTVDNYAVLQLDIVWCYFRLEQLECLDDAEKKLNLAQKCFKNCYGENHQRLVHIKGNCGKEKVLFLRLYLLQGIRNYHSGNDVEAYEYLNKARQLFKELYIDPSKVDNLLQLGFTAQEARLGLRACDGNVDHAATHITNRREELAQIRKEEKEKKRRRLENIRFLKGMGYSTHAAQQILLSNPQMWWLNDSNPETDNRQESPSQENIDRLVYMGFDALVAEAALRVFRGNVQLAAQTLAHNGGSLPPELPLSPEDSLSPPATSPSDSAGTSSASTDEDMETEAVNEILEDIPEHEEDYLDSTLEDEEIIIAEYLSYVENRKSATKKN
notes: overhang left at the N terminus after removal of GST by precision (3C) protease; also called linker-trap domain; source: E. coli BL21*, purified (GSH resin, GST–3C protease cleavage, gel filtration); not shown: GST, N-terminal, cleaved

Assays:
Settings in all cases: both partners purified
[1] = molecular target: T1, ^FAMFAT10 (GG–FAT10 N-terminally …); assay: fluorescence polarisation; kinetics: ^FAMFAT10 (20 nM) mixed with NUB1 (250–4,000 nM), polarisation over time, single exponentials, kobs against NUB1 concentration, kon by linear regression; 30 °C
[2] = molecular target: T2, FAT10 (human leukocyte …); assay: SEC; NUB1 (50 µM) incubated with FAT10 (75 µM) for 30 min on ice, Superdex 200 Increase 10/300; the single complex peak was pooled and run on SEC–MALS (60 mM HEPES pH 7.4, 50 mM NaCl, 50 mM KCl, 5% glycerol, 10 mM MgCl2, 0.5 mM TCEP)
[3] = molecular target: T3, Rpn1 (proteasomal receptor subunit of the 19S regulatory particle) (human (endogenous in HEK293), UniProt Q13200 1-908); assay: cryo-EM structure; hs26S proteasome mixed with preincubated (20 min) FAT10–Eos + NUB1 complex in 20 mM HEPES pH 7.4, 25 mM NaCl, 25 mM KCl, 5 mM MgCl2, 2 mM ATP, for 30 s or 60 s before plunge-freezing; nonprocessing and processing states
T3 construct: Rpn1, subunit of the human 26S proteasome; stood in the experiment as a subunit of the whole hs26S proteasome; also called proteasomal Rpn1 subunit; source: endogenous, within the hs26S proteasome purified from HEK293 cells

[4] = molecular target: T1, ^FAMFAT10 (GG–FAT10 N-terminally …); assay: fluorescence polarisation; titration: ^FAMFAT10 (100 nM) incubated with varying NUB1 concentrations on ice (45 min by the legends, 30 min by the methods), polarisation read in a 384-well plate preheated to 30 °C; the Kd is called approximate (some aggregation at higher NUB1 concentrations)

T3 sequence (Q13200 whole entry): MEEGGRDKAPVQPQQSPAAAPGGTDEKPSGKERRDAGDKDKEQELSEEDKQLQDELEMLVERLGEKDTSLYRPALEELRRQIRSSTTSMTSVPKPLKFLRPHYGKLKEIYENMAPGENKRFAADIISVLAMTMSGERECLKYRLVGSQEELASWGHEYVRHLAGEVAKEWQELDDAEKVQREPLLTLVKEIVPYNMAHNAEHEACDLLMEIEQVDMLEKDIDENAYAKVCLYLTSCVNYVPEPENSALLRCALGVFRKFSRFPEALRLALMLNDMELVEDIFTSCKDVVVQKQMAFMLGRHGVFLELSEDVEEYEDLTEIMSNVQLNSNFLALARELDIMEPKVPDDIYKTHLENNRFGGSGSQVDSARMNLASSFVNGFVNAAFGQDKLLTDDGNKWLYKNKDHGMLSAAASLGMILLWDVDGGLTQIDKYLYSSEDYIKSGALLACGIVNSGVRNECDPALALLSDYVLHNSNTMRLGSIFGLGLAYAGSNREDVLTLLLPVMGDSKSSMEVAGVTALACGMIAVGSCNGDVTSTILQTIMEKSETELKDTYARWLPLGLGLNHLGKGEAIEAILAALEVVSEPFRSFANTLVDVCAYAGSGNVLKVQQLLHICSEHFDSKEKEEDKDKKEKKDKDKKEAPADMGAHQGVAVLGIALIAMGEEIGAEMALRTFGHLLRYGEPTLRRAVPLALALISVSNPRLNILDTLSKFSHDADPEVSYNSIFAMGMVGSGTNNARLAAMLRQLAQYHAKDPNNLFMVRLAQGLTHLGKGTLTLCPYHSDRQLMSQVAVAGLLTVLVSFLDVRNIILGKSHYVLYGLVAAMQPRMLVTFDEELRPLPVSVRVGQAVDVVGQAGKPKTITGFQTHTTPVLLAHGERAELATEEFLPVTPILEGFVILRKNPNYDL

Binder | kon [1] [M⁻¹ s⁻¹] | stoichiometry N [2] | binding result [3] | Kd [4] [nM] | binding result [4]
B1 | 1600 ± 3000 | 1 | binds | 176 ± 6.8 | 
B2 |  |  |  |  | binds
